According to the supplement of paper PMC9233669:
Variants at the floor of the assay were thinned out.

Legend:
biotinyl-Met-oxazolone = assay: self-aminoacylation, catalytic enhancement (BMO) (fold over background); higher = more active; k-Seq, kA / k0A0; sequences stand for … in GGGAAUGGAUCCACAUCUACGAAUUC…UUCACUGCAGACUUGACGAAGCUG
How it was run: (§1)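 Mutagenized RNA pools with a 21-nt variable region (0.43 μM) reacted with each biotinyl-aminoacyl-oxazolone at 2–1250 μM. Reactions ran in 50 μL HEPES/NaCl/KCl/MgCl2/CaCl2 buffer with 5% acetonitrile, pH 6.9–7.0, for 90 minutes at room temperature. Streptavidin-captured RNA was quantified by triplicate qPCR and Illumina sequencing, and per-sequence fraction reacted was fit to a pseudo-first-order model with 1000 bootstraps. Catalytic enhancement is median kA divided by the uncatalyzed rate, the low-activity peak of a bimodal Gaussian fit.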

biotinyl-Phe-oxazolone = assay: self-aminoacylation, catalytic enhancement (BFO) (fold over background); higher = more active; k-Seq, kA / k0A0; sequences stand for … in GGGAAUGGAUCCACAUCUACGAAUUC…UUCACUGCAGACUUGACGAAGCUG
How it was run: as §1

biotinyl-Ile-oxazolone = assay: self-aminoacylation, catalytic enhancement (BIO) (fold over background); higher = more active; k-Seq, kA / k0A0; sequences stand for … in GGGAAUGGAUCCACAUCUACGAAUUC…UUCACUGCAGACUUGACGAAGCUG
How it was run: as §1

biotinyl-Trp-oxazolone = assay: self-aminoacylation, catalytic enhancement (BWO) (fold over background); higher = more active; k-Seq, kA / k0A0; sequences stand for … in GGGAAUGGAUCCACAUCUACGAAUUC…UUCACUGCAGACUUGACGAAGCUG
How it was run: as §1

biotinyl-Val-oxazolone = assay: self-aminoacylation, catalytic enhancement (BVO) (fold over background); higher = more active; k-Seq, kA / k0A0; sequences stand for … in GGGAAUGGAUCCACAUCUACGAAUUC…UUCACUGCAGACUUGACGAAGCUG
How it was run: as §1

biotinyl-Leu-oxazolone = assay: self-aminoacylation, catalytic enhancement (BLO) (fold over background); higher = more active; k-Seq, kA / k0A0; sequences stand for … in GGGAAUGGAUCCACAUCUACGAAUUC…UUCACUGCAGACUUGACGAAGCUG
How it was run: as §1

| Sequence | self-aminoacylation (biotinyl-Met-oxazolone) | self-aminoacylation (biotinyl-Phe-oxazolone) | self-aminoacylation (biotinyl-Ile-oxazolone) | self-aminoacylation (biotinyl-Trp-oxazolone) | self-aminoacylation (biotinyl-Val-oxazolone) | self-aminoacylation (biotinyl-Leu-oxazolone) |
| --- | --- | --- | --- | --- | --- | --- |
| AAGUUUGCUAAUAUUCGCGAG [Fam3.1 aminoacylation ribozyme variant] | 2.02 | 16.5 | 2.04 | 3.31 | – | – |
| AUUCACAUAGGUCAUCGGGGG [Fam2.2 aminoacylation ribozyme variant] | 2.28 | – | – | 2.66 | – | – |
| CCACACGUCAAGCAAUCGCUC [Fam1B.1 aminoacylation ribozyme variant] | 2.64 | – | – | – | 2.54 | – |
| AUUCACCUAGGUAAUCUGGUG [Fam2.2 aminoacylation ribozyme variant] | 3.3 | 16.9 | – | 3.62 | – | 4.66 |
| AUUCACCUAGGUCAUCGGGAC [Fam2.2 aminoacylation ribozyme variant] | 2.56 | 2.12 | – | 2.55 | – | 3 |
| AUUACUCUGGUCAUCGAGGGA [Fam2.1 aminoacylation ribozyme variant] | 2.09 | – | – | 2.13 | – | – |
| AACUUUGCUAAUAGUCGCAAC [Fam3.1 aminoacylation ribozyme variant] | – | 4.1 | 2.22 | 2.59 | – | 2.16 |
| AGGUCUGCUAAUAGUCGCAAG [Fam3.1 aminoacylation ribozyme variant] | 2.08 | 37 | – | 9.95 | – | – |
| UUUCACCUAGGUCAUCGGGUC [Fam2.2 aminoacylation ribozyme variant] | – | 2.14 | – | – | 2.09 | – |
| AUUACCCUGCUCUUCGAGUGA [Fam2.1 aminoacylation ribozyme variant] | 2.02 | 2.38 | – | 2.72 | – | 2.36 |
| AUUCACCAAGGUCAUAGGGUG [Fam2.2 aminoacylation ribozyme variant] | 2.48 | 9.85 | – | 2.2 | – | 4.37 |
| AUUACCCUGGUACUCGAGUGA [Fam2.1 aminoacylation ribozyme variant] | 2.66 | 10.3 | – | 3.35 | – | 2.66 |
| CCAGACUUCGAGCAAUCGGUC [Fam1B.1 aminoacylation ribozyme variant] | – | – | – | – | 2.09 | – |
| AUCACCCUGGUCAUCAAGUGA [Fam2.1 aminoacylation ribozyme variant] | 3.75 | 14.2 | – | 4.8 | 2.1 | 3.46 |
| ACGUUUGCUAAUAGUCGCCAG [Fam3.1 aminoacylation ribozyme variant] | 2.26 | 2.03 | – | 2.59 | – | – |
| AUUAACCUAGAUCAUCGGGUG [Fam2.2 aminoacylation ribozyme variant] | 2.81 | 14.9 | – | 2.54 | – | 2.84 |
| AUUCACCUAUGUCAUGGGGUG [Fam2.2 aminoacylation ribozyme variant] | 2.89 | 14.1 | – | 2.69 | 2.07 | 3.16 |
| CCACAAUUCACGCAAUCGGUC [Fam1B.1 aminoacylation ribozyme variant] | – | – | – | – | 2.05 | – |
| CUACUGCAAACAUUCGGUCUG [Fam1A.1 aminoacylation ribozyme variant] | – | 9.39 | 2.01 | – | – | – |
| CUUCACCUAGGUCAUCGGCUG [Fam2.2 aminoacylation ribozyme variant] | – | 9.39 | – | 2.25 | 2.27 | – |
| CUUAGCCUGGUCAUCGAGUGA [Fam2.1 aminoacylation ribozyme variant] | 2.57 | 2.6 | – | 2.72 | – | 3.38 |
| AUUACCGUGCUCAUCGAGUGA [Fam2.1 aminoacylation ribozyme variant] | 2.12 | 2.01 | – | 3.33 | – | 2.64 |
| CCGCACUUCAAGCAAUCGGUU [Fam1B.1 aminoacylation ribozyme variant] | – | 13.9 | – | 14.4 | 2.45 | 2.4 |
| AUUCACCUACGUCAUCGGGGG [Fam2.2 aminoacylation ribozyme variant] | – | 6.05 | – | – | 2.01 | 2.68 |
| CCACUCUUCAAGCAAUCGGCC [Fam1B.1 aminoacylation ribozyme variant] | – | 4.1 | – | 4.14 | 2.16 | 2.23 |
| AAGUUUGUUAAUAGUCGCAGG [Fam3.1 aminoacylation ribozyme variant] | – | 5.46 | – | 2.06 | – | 2.45 |
| AAGUUUUCUAACAGUCGCAAG [Fam3.1 aminoacylation ribozyme variant] | – | 3.07 | 2.04 | – | – | – |
| AUCCACCUAGGUCAUAGGGUG [Fam2.2 aminoacylation ribozyme variant] | – | 2.19 | – | 2.2 | – | 2.16 |
| AUUACCCUGGGGAUCGAGUGA [Fam2.1 aminoacylation ribozyme variant] | 2.55 | 14.1 | – | 3.94 | – | 3.34 |
